Like-named read-outs stand apart in the source and are kept apart here.
Tests used:
[1] = biological target: T1, T4 DNA ligase (Enterobacteria phage T4?) (UniProt P00970)
T1 sequence: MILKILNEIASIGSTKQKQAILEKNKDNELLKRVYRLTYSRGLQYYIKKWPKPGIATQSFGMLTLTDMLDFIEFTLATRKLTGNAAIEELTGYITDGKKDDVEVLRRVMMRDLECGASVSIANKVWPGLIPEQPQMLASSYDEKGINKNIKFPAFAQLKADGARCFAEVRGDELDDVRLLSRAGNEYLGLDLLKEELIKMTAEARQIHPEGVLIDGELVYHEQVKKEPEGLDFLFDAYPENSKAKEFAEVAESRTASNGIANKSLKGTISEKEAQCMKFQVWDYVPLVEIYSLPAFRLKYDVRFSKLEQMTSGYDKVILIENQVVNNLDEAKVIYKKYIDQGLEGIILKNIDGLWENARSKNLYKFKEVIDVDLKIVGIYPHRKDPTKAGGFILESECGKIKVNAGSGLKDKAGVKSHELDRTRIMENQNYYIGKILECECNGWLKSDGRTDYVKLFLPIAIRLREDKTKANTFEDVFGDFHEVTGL

[2] = system: T2, Human DNA ligase 3 (hLig3 beta) (Homo sapiens), P49916-4
T2 sequence: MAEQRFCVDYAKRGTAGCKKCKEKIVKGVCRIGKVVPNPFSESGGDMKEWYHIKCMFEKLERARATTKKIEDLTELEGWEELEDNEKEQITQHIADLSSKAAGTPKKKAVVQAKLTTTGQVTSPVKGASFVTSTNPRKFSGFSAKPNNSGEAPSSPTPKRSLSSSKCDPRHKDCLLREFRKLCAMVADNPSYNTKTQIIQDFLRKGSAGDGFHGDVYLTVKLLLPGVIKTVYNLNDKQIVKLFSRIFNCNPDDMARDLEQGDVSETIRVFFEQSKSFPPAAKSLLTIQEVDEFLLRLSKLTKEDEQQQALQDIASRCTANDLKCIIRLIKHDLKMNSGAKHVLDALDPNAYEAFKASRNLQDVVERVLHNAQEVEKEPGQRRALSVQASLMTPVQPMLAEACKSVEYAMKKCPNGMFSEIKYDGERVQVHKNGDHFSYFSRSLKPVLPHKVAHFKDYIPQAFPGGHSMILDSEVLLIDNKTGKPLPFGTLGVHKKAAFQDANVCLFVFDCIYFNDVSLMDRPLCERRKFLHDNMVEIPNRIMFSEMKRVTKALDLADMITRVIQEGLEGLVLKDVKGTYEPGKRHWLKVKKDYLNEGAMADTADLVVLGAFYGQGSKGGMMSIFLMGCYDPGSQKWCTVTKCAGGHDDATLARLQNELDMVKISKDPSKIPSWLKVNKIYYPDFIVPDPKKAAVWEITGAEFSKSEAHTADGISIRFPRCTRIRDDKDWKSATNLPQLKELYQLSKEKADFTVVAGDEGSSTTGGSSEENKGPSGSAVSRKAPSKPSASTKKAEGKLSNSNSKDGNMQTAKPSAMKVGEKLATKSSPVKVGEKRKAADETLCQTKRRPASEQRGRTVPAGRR

[3] = biological target: T3, PBCV-1 DNA ligase (Paramecium bursaria Chlorella virus 1?) (UniProt O41026); conditions: T4 ligase buffer, 25 C 1 h; library yield 50%
T3 sequence: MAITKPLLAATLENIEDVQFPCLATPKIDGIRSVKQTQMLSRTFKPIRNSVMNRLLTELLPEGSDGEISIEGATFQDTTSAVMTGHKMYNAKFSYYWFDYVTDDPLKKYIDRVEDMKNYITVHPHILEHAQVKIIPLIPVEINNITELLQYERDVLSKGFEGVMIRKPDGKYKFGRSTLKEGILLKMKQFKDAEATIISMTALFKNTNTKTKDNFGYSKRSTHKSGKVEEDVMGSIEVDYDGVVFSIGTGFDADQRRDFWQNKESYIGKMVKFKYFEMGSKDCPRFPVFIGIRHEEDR

[4] = biological target: T4, T3 DNA ligase (Enterobacteria phage T3?) (UniProt P07717); conditions: T4 ligase buffer, 25 C 1 h
T4 sequence: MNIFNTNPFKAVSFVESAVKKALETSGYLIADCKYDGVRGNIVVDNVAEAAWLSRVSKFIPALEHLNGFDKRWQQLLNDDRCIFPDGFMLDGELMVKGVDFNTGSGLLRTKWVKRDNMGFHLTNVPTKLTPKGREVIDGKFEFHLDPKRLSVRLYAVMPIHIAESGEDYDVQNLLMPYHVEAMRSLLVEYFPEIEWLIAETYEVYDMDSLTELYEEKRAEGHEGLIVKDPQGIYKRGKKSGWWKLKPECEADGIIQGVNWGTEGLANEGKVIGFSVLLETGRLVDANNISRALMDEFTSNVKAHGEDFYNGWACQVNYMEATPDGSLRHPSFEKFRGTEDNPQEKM

[5] = biological target: T5, T7 DNA ligase (Enterobacteria phage T7?) (UniProt P00969)
T5 sequence: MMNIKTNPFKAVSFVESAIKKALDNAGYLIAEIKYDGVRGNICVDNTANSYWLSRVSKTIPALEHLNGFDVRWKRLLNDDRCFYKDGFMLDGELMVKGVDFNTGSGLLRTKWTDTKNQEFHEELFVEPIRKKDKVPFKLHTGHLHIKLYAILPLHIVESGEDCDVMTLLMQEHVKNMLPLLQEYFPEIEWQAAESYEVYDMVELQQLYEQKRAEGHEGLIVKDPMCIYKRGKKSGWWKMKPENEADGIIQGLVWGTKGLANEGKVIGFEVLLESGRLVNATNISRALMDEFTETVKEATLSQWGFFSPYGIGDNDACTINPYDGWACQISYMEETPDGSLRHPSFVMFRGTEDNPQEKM

## NNNN [randomized four-base 5' overhang hairpin library]
[1]; SMRT sequencing, T4 ligase buffer, 10 mM MgCl2, 1 mM ATP, 25 C 1 h
  activity (% ligation fidelity): 72.4
[1]; with 6% PEG 6000
  activity (% ligation fidelity): 66.9
[2]; T4 ligase buffer, 25 C 1 h, text p210 prints 56%
  activity (% ligation fidelity): 44
[2]; with 6% PEG 6000
  activity (% ligation fidelity): 49.7
[3]
  activity (% ligation fidelity): 77.2
[4]
  activity (% ligation fidelity): 59.2
[5]; T4 ligase buffer, 25 C 1 h, library yield 20%
  activity (% ligation fidelity): 88.8
[5]; with 6% PEG 6000
  activity (% ligation fidelity): 77.9
